Results on 2 molecules are retold here after patent publication US20160136280A1, “STABLE INTRAVENOUS FORMULATION” (HOFFMANN-LA ROCHE INC., priority 2013, published 2016).

One series is described as follows: Water solubility. Type of series: physicochemical.
Another series in a line: Oxidation stability. To be noted: base compound is the major oxidation product. Type of series: physicochemical.
Another series is described as follows: Light stability. Type of series: physicochemical. As to conditions: forms the base compound and other degradants.

For the molecule `COc1cc(C(=O)O)ccc1NC(=O)[C@@H]1N[C@@H](CC(C)(C)C)[C@](C#N)(c2ccc(Cl)cc2F)[C@H]1c1cccc(Cl)c1F` [base compound, 4-{[(2R,3S,4R,5S)-3-(3-chloro-2-fluoro-phenyl)-4-(4-chloro-2-fluoro-phenyl)-4-cyano-5-(2,2-dimethyl-propyl)-pyrrolidine-2-carbonyl]-amino}-3-methoxy-benzoic acid], in “Water solubility”, the solubility in water result is listed as “practically water insoluble”.

For `COCCOCCOC(=O)OC(C)OC(=O)c1ccc(NC(=O)[C@@H]2N[C@@H](CC(C)(C)C)[C@](C#N)(c3ccc(Cl)cc3F)[C@H]2c2cccc(Cl)c2F)c(OC)c1` (stereo partly drawn) [Compound A, 4-{[(2R, 3S, 5S)-4-(4-chloro-2-fluoro-phenyl)-3-(3-chloro-2-fluoro-phenyl)-4-cyano-5-(2,2-dimethyl-propyl)-pyrrolidine-2-carbonyl]-amino}-3-methoxy-benzoic Acid 1-[2-(2-methoxy-ethoxy)-ethoxycarbonyloxy]-ethyl ester], the “hydrolysis kinetics in aqueous solutions” value (aqueous solutions, base compound is the major degradation product) is “first-order kinetics”. Further, the “most stable pH range” value (from stability perspective) is listed as 3-5 pH. For the same molecule, the sensitivity to oxidation result in “Oxidation stability” is recorded as “vulnerable to oxidation”. In addition, the sensitivity to light result in “Light stability” is reported as “light sensitive”. For the same molecule, the solubility in water entry in “Water solubility” is “relatively more soluble in water”.
